The data set deals with the molecule itself. In words: crystal structure; co-crystallisation by hanging-drop vapour diffusion at 20 °C; MOA variant 5 mg/ml pre-mixed with the trisaccharide Galα1,3(Fucα1,2)Gal (1:20) and the heptapeptide at 1:10 MOA:peptide molar ratio; crystals grew over 2-4 weeks.

Positions count from the first letter of the chain named. Names may count otherwise.

B1: Marasmius oreades agglutinin (MOA) variant C215A (enzyme)
chain: MSLRRGIYHIENAGVPSAIDLKDGSSSDGTPIVGWQFTPDTINWHQLWLAEPIPNVADTFTLCNLFSGTYMDLYNGSSEAGTAVNGWQGTAFTTNPHQLWTIKKSSDGTSYKIQNYGSKTFVDLVNGDSSDGAKIAGWTGTWDEGNPHQKWYFNRMSVSSAEAQAAIARNPHIHGTYRGYILDGEYLVLPNATFTQIWKDSGLPGSKWREQIYDADDFAIAMKAAVGKWGADSWKANGFAIFCGVMLGVNKAGDAAHAYNFTLTKDHADIVFFEPQNGGYLNDIGYDSYMAFY
notes: Marasmius oreades agglutinin (MOA), from the cDNA for wild-type MOA in vector MOApT7-LO; the final model holds residues 2-293, no density for the first methionine; One protomer in the asymmetric unit; the second subunit of the dimer comes from crystal symmetry; Construct described in Cordara et al. (2011); also called MOA C215A; MOA-C215A
Take B1: the binding result is “binds”.

B2: Marasmius oreades agglutinin (MOA) variant C215A/H257A (enzyme)
chain: B1 chain with H257A
notes: Marasmius oreades agglutinin (MOA), from the cDNA for wild-type MOA in vector MOApT7-LO; the final model holds residues 2-293, no density for the first methionine; also called MOA C215A/H257A; MOA-C215A/H257A
For the protein B2, the binding result was “binds”.

These data come from paper PMC8244254 (Current Research in Structural Biology, 2020).
